Laboratory results published in article PMC12715529, “Functional D- and L‑Naphthalenediimide-Peptides: Microwave-Driven Synthesis, Supramolecular Aggregation, and Multiphoton Fluorescence Lifetime Imaging Microscopy in Living Cells” (ACS Bio & Med Chem Au, 2025).

Legend:
[1] = MTT and crystal violet cell viability assays; format: cell-based; settings: human, PC-3 cells, MTT and crystal violet assays, up to 72 h observation, read-out: IC50 (cytotoxicity)
Method: (§1) Subsequently, cells were washed three times with PBS, and 3-(4,5-dimethylthiazol-2-yl)-2,5- diphenyltetrazolium bromide (MTT) was added (0.5 mg/mL in serum-free medium (SFM)), followed by a 2 h incubation. After aspiration to remove the serum-free medium, 100 μL of DMSO was added to solubilize the precipitated formazan species, and 96-well plates were read by an ELISA plate reader, Molecular Devices Versa Max (BN02877). The absorption wavelength was 570 nm, and a 690 nm wavelength was used as a reference.

[2] = tested on: cancerous cell lines (PC-3); assay: MTT and crystal violet cell viability assays; format: cell-based; settings: at concentrations used for imaging, over 72 h of observations
Method: as §1

[3] = Two-photon TCSPC point decays in solution (aggregation behaviour); format: physicochemical; settings: for a1 (amplitude of τ1) / a2 (amplitude of τ2) / τ2 (long-lifetime component) / τ1 (short-lifetime component): two-photon TCSPC 910 nm
Excerpt: Prior to the cellular studies by FLIM, lifetime distribution decays of probes 3 (both enantiomers), 4 (both enantiomers), and L -6 were studied by TCSPC in different concentrations and solvent systems. […] The main fluorescence lifetime parameters obtained by TCSPC in the solution phase are summarized in Table , and further details are given in Figures S105–S133 and Tables S2–S4. The goodness of fit of the data points obtained is represented by the Chi–square parameter, χ^2; τ1 is the short-lifetime component; τ2 is the long-lifetime component; and the parameters a1 and a2 represent the amplitude of the components.

[4] = FE-SEM and Airyscan confocal imaging of dried films (aggregation morphology); format: physicochemical; settings: dried powder or freeze-dried 1 mg/mL MeCN/H2O (1:1) or DMSO solutions
Method: To further investigate the aggregation behavior, we examined the surface morphologies of the isolated conjugates in the solid state at the micrometer scale using field emission scanning electron microscopy (FE-SEM). This analysis aimed to determine whether the aggregation properties of these peptide-based compounds influence their fluorescence emission. The FE SEM micrographs of the D- and L-enantiomers of 3 and 4 were recorded from dried powder after purification or after freeze-drying of 1 mg/mL solutions deposited in either MeCN/H2O (1:1) or DMSO solutions. […] Confocal laser scanning fluorescence microscopy was performed for the thin films deposited on glass-bottomed borosilicate slides using imaging Petri dishes. Micrographs were acquired using Airyscan detection for L -3 (a1–e1), L -4 (a2–e2), D -3 (a3–e3), D -4 (a4–d4), and L -6 (a5–d5) where these images were recorded following overnight freeze-drying of films deposited from DMSO (Figures and S67). […] This is consistent with our observations from solution excitation–emission maps (Figures and S57–S63) and further points to the overall ability of these aggregates to show fluorescence emission due to possible stacking and excited-state electron and energy dynamics. […] Specifically, emission was detected in the blue (λem = 420–480 nm), green (λem = 495–550 nm), and red (λem = 555–620 nm) channels. […]

PC-3 cells = settings: 48 h
Method: After splitting the cells, cells (3 × 10^3 cells per well) were seeded on a sterile 96-well plate and incubated for 48 h to let the cells adhere to the plates. The compound of interest was subsequently loaded at different concentrations into the wells and incubated for a further 48 h. The concentrations used ranged between 250 μM or 0.01 mg/mL and 1 nM or 1 ng/mL (1% DMSO with compound, 99% RPMI (10% FCS) for PC-3. Subsequently, the medium from the plates was carefully aspirated so as not to disturb the colonies, and the plates were gently washed with PBS. Next, a mixture of methanol/PBS (1:1) was added in a sufficient volume to cover the colonies, and it was left for 15 min. After this time, it was removed, and 100% methanol was added for a further 15 min. The methanol was then removed, and 0.5% crystal violet solution (in 20% methanol and 80% water) was added and left to allow sufficient staining. The crystal violet solution was removed by carefully rinsing the cell plates with an indirect flow of tap water. The plates were inverted and left on the bench at room temperature to dry the water. Methanol (200 μL) was added to each well, and the plate was incubated with its lid on for 20 min at room temperature on a bench rocker with a frequency of 20 oscillations per minute. The 96-well plates were then read with an ELISA plate reader, Molecular Devices Versa Max (BN02877). […]

[5] = target: T1, GRP receptors in PC-3 cells (Homo sapiens, UniProt P30550); assay: Blocking experiment with L-[7–13]BBN, confocal imaging; format: cell-based; settings: PC-3 pre-incubated with 1 mM L-[7–13]BBN, 37 °C, 20 min, washed, then conjugate 20 min
T1 construct: This also supports the targeted uptake directed by the GRP receptors in PC-3 cells; endogenous in cells; host or cells: PC-3 cells (ATCC)
T1 sequence (P30550 whole entry): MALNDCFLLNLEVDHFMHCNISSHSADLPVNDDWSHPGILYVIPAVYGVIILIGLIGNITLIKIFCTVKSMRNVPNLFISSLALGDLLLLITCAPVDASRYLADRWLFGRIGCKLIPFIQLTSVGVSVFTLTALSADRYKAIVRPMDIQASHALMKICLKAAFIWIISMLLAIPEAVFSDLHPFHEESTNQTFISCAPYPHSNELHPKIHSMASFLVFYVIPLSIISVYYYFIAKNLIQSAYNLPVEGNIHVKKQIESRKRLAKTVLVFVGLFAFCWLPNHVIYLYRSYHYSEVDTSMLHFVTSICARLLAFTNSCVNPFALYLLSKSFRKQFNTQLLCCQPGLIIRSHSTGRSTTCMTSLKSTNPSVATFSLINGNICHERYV
Method: Compound L -6 emits in the green and red channels (500–550 and 570–750 nm, respectively) when excited at 488 nm. […] In addition, the fluorescence emissions in vitro are stronger than the observed fluorescence emission in solution. […] This also supports the targeted uptake directed by the GRP receptors in PC-3 cells interplayed with BODIPY-driven cellular localization. To further probe this observation, a blocking experiment by confocal imaging was conducted (Figures S103–S104), whereby PC-3 cells were first incubated in the presence of a high concentration of L-[7–13]-BBN (1 mM) at 37 °C for 20 min. This peptide is only weakly fluorescent, and on this time scale (and up to 18 h of incubation time), confocal imaging cannot show distinguishable emission, to describe the uptake for L-[7,13]-BBN alone by this method (Figure S87). After the standard 20 min pretreatment time, the cells were washed with PBS and then the serum-free medium (SFM) was replaced. […] In the case of L-6, the observed maximum fluorescence intensity is distributed over the exterior of the cell, with points of aggregation visible around the membrane. […]
Figure S103. […] (D) A comparison of the mean fluorescence intensity estimated from confocal imaging experiments of the standard blocking assays in living PC-3 cells (Figure S103), under 20 min incubation, 37 °C, ex 488 nm. […]

[6] = DMSO, 0.01 mM, double-exponential fit, aggregation indicator

Structure (SMILES) | IC50 at 48 h [1] | cytotoxicity in words [2] | a1 (amplitude of τ1) ([3]; DMSO, 0.01 mM) | a2 (amplitude of τ2) ([3]; DMSO, 0.01 mM) | τ2 (long-lifetime component) ([3]; DMSO, 0.01 mM) | τ1 (short-lifetime component) [3, 6] | a1 (amplitude of τ1) ([3]; DMSO, 0.1 mM) | a2 (amplitude of τ2) ([3]; DMSO, 0.1 mM) | τ1 (short-lifetime component) ([3]; DMSO, 0.1 mM) | τ2 (long-lifetime component) ([3]; DMSO, 0.1 mM) | a1 (amplitude of τ1) ([3]; DMSO, 1 mM) | a2 (amplitude of τ2) ([3]; DMSO, 1 mM) | τ1 (short-lifetime component) ([3]; DMSO, 1 mM) | τ2 (long-lifetime component) ([3]; DMSO, 1 mM) | a1 (amplitude of τ1) ([3]; DMSO/H2O (1:1), 0.025 mM) | a2 (amplitude of τ2) ([3]; DMSO/H2O (1:1), 0.025 mM) | a1 (amplitude of τ1) ([3]; DMSO/H2O (1:1), 2.5 mM) | a2 (amplitude of τ2) ([3]; DMSO/H2O (1:1), 2.5 mM) | τ1 (short-lifetime component) ([3]; DMSO/H2O (1:1), 2.5 mM) | τ2 (long-lifetime component) ([3]; DMSO/H2O (1:1), 2.5 mM) | further results
CC(C)C[C@H](NC(=O)[C@H](Cc1c[nH]cn1)NC(=O)CNC(=O)[C@@H](NC(=O)[C@H](C)NC(=O)[C@H](Cc1c[nH]c2ccccc12)NC(=O)[C@H](CCC(N)=O)NC(=O)[C@H](Cc1ccc(I)cc1)N1C(=O)c2ccc3c4c(ccc(c24)C1=O)C(=O)N([C@@H](Cc1ccc(I)cc1)C(=O)N[C@@H](CCC(N)=O)C(=O)N[C@@H](Cc1c[nH]c2ccccc12)C(=O)N[C@@H](C)C(=O)N[C@H](C(=O)NCC(=O)N[C@@H](Cc1c[nH]cn1)C(=O)N[C@@H](CC(C)C)C(N)=O)C(C)C)C3=O)C(C)C)C(N)=O [L-4] | > 100 µM | nontoxic | 75% | 25% | 4.76 ns | 0.51 ns | 79% | 21% | 0.49 ns | 5.45 ns | 77% | 23% | 0.48 ns | 4.29 ns | 84% | 16% | 86% | 14% | 0.26 ns | 4.97 ns | τ1 (short-lifetime component) ([3]; DMSO/H2O (1:1), 0.025 mM): 0.48 ns; τ2 (long-lifetime component) ([3]; DMSO/H2O (1:1), 0.025 mM): 9.57 ns; a1 (amplitude of τ1) ([3]; DMSO/H2O (1:1), 0.25 mM): 83%; a2 (amplitude of τ2) ([3]; DMSO/H2O (1:1), 0.25 mM): 17%; τ1 (short-lifetime component) ([3]; DMSO/H2O (1:1), 0.25 mM): 0.40 ns; τ2 (long-lifetime component) ([3]; DMSO/H2O (1:1), 0.25 mM): 3.12 ns; aggregate morphology [4]: granular and globular morphology; IC50 (PC-3 cells): > 100 µM
CC1=CC(C)=[N+]2C1=C(c1ccc(C(=O)NCCN3C(=O)c4ccc5c6c(ccc(c46)C3=O)C(=O)N([C@@H](CCC(N)=O)C(=O)N[C@@H](Cc3c[nH]c4ccccc34)C(=O)N[C@@H](C)C(=O)N[C@H](C(=O)NCC(=O)N[C@@H](Cc3c[nH]cn3)C(=O)N[C@@H](CC(C)C)C(N)=O)C(C)C)C5=O)cc1)c1c(C)cc(C)n1[B-]2(F)F [L-6] | > 100 µM | nontoxic | 68% | 32% | 3.34 ns | 0.14 ns | 80% | 20% | 0.14 ns | 2.64 ns | 66% | 34% | 0.14 ns | 1.67 ns |  |  | 65% | 35% | 0.15 ns | 2.25 ns | uptake after pre-blocking with L-[7–13]BBN [5]: significant decrease of the uptake efficiency in pretreated cells; uptake after pre-blocking with L-[7–13]BBN ([5]; listed as L -6): significantly lesser extent than in the nonblocked experiment; τ1 relative to BODIPY-linker precursor 5 ([3]; TCSPC in solution, assigned to self-aggregation): 10 fold lower; τ1 (approximate) ([3]; both DMSO and DMSO/H2O solutions, TCSPC): ~0.1 ns
CC(C)C[C@H](NC(=O)[C@H](Cc1c[nH]cn1)NC(=O)CNC(=O)[C@@H](NC(=O)[C@H](C)NC(=O)[C@H](Cc1c[nH]c2ccccc12)NC(=O)[C@H](CCC(N)=O)NC(=O)[C@H](Cc1ccc(I)cc1)N1C(=O)c2ccc3c4c(ccc(c24)C1=O)C(=O)N([C@@H](Cc1ccc(I)cc1)C(=O)ON1C(=O)CCC1=O)C3=O)C(C)C)C(N)=O [L-3] | > 100 µM | nontoxic | 62% | 38% | 7.35 ns | 0.84 ns | 62% | 38% | 0.57 ns |  | 63% | 37% | 0.38 ns | 2.54 ns | 82% | 18% | 77% | 23% | 0.31 ns | 3.45 ns | τ1 (short-lifetime component) ([3]; DMSO/H2O (1:1), 0.025 mM): 0.37 ns; τ2 (long-lifetime component) ([3]; DMSO/H2O (1:1), 0.025 mM): 10.01 ns; a1 (amplitude of τ1) ([3]; DMSO/H2O (1:1), 0.25 mM): 81%; a2 (amplitude of τ2) ([3]; DMSO/H2O (1:1), 0.25 mM): 19%; τ1 (short-lifetime component) ([3]; DMSO/H2O (1:1), 0.25 mM): 0.38 ns; τ2 (long-lifetime component) ([3]; DMSO/H2O (1:1), 0.25 mM): 9.87 ns; IC50 (PC-3 cells): > 100 µM
